US5972599
pKd, pKi: −log10 of the molar value.

Legend:
IL-4 (Homo sapiens) = biological target: T1, IL-4 (Homo sapiens) (UniProt P05112); test: filter
T1 sequence: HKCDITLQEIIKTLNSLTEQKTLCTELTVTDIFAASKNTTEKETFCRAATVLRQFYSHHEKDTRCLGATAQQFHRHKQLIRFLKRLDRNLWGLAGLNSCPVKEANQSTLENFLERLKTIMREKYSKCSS

TNF-alpha (Homo sapiens) [1] = biological target: TNF-alpha (Homo sapiens) (UniProt P01375); test: competition; settings: random RNA control, U937 cells
TNF-alpha (Homo sapiens) [2] = biological target: TNF-alpha (Homo sapiens) (UniProt P01375); test: filter
TNF-alpha (Mus musculus) = biological target: T2, TNF-alpha (Mus musculus) (UniProt P06804); test: filter; settings: specificity control
T2 sequence: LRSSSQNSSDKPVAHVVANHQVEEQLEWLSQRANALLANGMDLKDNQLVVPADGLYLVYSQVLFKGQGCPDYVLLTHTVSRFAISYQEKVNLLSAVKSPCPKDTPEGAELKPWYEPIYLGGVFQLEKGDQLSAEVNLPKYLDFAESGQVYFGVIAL

TNF-beta (Homo sapiens) = biological target: T3, TNF-beta (Homo sapiens) (UniProt P01374); test: filter; settings: specificity control
T3 sequence: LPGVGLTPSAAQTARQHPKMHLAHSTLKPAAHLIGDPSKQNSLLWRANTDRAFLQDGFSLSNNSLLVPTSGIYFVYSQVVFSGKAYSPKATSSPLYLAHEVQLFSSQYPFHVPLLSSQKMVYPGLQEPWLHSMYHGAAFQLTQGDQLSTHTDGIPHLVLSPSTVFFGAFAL

RANTES (Homo sapiens) = biological target: T4, RANTES (Homo sapiens) (UniProt P13501); test: filter
T4 sequence: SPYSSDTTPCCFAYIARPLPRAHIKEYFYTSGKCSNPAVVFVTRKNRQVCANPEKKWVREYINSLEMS

IFN-gamma (Homo sapiens) = biological target: T5, IFN-gamma (Homo sapiens) (UniProt P01579); test: filter
T5 sequence: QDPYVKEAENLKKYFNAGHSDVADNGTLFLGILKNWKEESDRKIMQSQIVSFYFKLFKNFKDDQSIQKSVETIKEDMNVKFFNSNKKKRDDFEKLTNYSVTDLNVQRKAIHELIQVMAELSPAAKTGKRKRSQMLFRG

IFN-gamma (Mus musculus) = biological target: T6, IFN-gamma (Mus musculus) (UniProt P01580); test: filter; settings: mouse protein
T6 sequence: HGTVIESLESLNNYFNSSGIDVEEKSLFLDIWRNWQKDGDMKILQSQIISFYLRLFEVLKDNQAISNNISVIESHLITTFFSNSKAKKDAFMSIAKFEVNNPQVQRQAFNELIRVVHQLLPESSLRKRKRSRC

[3] = 2'-F all C, 2'-NH2 all U, random pool
[4] = 2'-NH2 all C and U, random pool
[5] = 2'-F all C, 2'-NH2 all U, round 17 pool
[6] = 2'-F all C and U, round 17 pool

TNF-alpha (Homo sapiens), sequence (P01375 77-233): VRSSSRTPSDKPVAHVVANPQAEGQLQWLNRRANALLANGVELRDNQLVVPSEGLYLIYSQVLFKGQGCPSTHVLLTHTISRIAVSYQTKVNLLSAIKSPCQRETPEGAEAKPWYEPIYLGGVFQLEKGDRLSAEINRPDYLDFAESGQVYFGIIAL

GGGAGACAAGAAUAAACGCUCAANNNNNNNNNNNNNNNNNNNNNNNNNNNNNNNNNNNNNNNNUUCGACAGGAGGCUCACAACAGGC [40N8 random pool 2'F/NH2]
pKd (IL-4 (Homo sapiens); [3]): < 4.70

GGGAGACAAGAAUAAACGCUCAANNNNNNNNNNNNNNNNNNNNNNNNNNNNNNNNNNNNNNNNUUCGACAGGAGGCUCACAACAGGC [40N8 random pool 2'F]
pKd (IL-4 (Homo sapiens); 2'-F all C and U, random pool): < 4.70

GGGAGACAAGAAUAAACGCUCAANNNNNNNNNNNNNNNNNNNNNNNNNNNNNNNNNNNNNNNNUUCGACAGGAGGCUCACAACAGGC [40N8 random pool 2'NH2]
pKd (IL-4 (Homo sapiens); [4]): < 4.70

GGGAGACAAGAAUAAACGCUCAANNNNNNNNNNNNNNNNNNNNNNNNNNNNNNNNNNNNNNNNUUCGACAGGAGGCUCACAACAGGC [IL-4 round 17 pool 2'F/NH2]
pKd (IL-4 (Homo sapiens); [5]): 7.26

GGGAGACAAGAAUAAACGCUCAANNNNNNNNNNNNNNNNNNNNNNNNNNNNNNNNNNNNNNNNUUCGACAGGAGGCUCACAACAGGC [IL-4 round 17 pool 2'F]
pKd (IL-4 (Homo sapiens); [6]): 7.52

GGGAGACAAGAAUAAACGCUCAANNNNNNNNNNNNNNNNNNNNNNNNNNNNNNNNNNNNNNNNUUCGACAGGAGGCUCACAACAGGC [IL-4 round 17 pool 2'NH2]
pKd (IL-4 (Homo sapiens); 2'-NH2 all C and U, round 17 pool, high filter background, earlier round about 100 nM): 6.00

GGGAGCUCAGAAUAAACGCUCAANNNNNNNNNNNNNNNNNNNNNNNNNNNNNNUUCGACAUGAGGCCCGGAUCCGGC [TNF random RNA]
pKi (TNF-alpha (Homo sapiens) [1]): < 3.00
pKd (TNF-alpha (Homo sapiens) [2]; estimated, flat curves up to 10 uM protein): < 3.00

GGGAGCUCAGAAUAAACGCUCAANNNNNNNNNNNNNNNNNNNNNNNNNNNNNNUUCGACAUGAGGCCCGGAUCCGGC [TNF round 6 C-SELEX pool]
pKd (TNF-alpha (Homo sapiens) [2]; C-SELEX final pool): 6.40

GGGAGCUCAGAAUAAACGCUCAANNNNNNNNNNNNNNNNNNNNNNNNNNNNNNUUCGACAUGAGGCCCGGAUCCGGC [TNF round 23 A-SELEX pool]
pKd (TNF-alpha (Homo sapiens) [2]; round 23A pool): 6.15
pKd (TNF-alpha (Mus musculus)): < 3.00
pKd (TNF-beta (Homo sapiens)): < 3.00

GGGAGGACGATGCGGNNNNNNNNNNNNNNNNNNNNNNNNNNNNNNNNNNNNNNNNCAGACGACTCGCCCGA [RANTES random ssDNA pool 40N7]
pKd (RANTES (Homo sapiens); starting pool, 150 mM NaCl): 5.52

GGGAGGACGATGCGGNNNNNNNNNNNNNNNNNNNNNNNNNNNNNNNNNNNNNNNNCAGACGACTCGCCCGA [RANTES round 19 ssDNA pool]
pKd (RANTES (Homo sapiens); round 19, 150 mM NaCl, text says 20 nM): 7.74

GGGAGGACGAUGCGGNNNNNNNNNNNNNNNNNNNNNNNNNNNNNNNNNNNNNNNNCAGACGACUCGCCCGA [40N7 random pool 2'F/NH2]
pKd (IFN-gamma (Homo sapiens); [3]): < 6.15

GGGAGGACGAUGCGGNNNNNNNNNNNNNNNNNNNNNNNNNNNNNNNNNNNNNNNNCAGACGACUCGCCCGA [40N7 random pool 2'F]
pKd (IFN-gamma (Homo sapiens); 2'-F all C and U, random pool): < 6.15

GGGAGGACGAUGCGGNNNNNNNNNNNNNNNNNNNNNNNNNNNNNNNNNNNNNNNNCAGACGACUCGCCCGA [40N7 random pool 2'NH2]
pKd (IFN-gamma (Homo sapiens); [4]): < 6.15

GGGAGGACGAUGCGGNNNNNNNNNNNNNNNNNNNNNNNNNNNNNNNNNNNNNNNNCAGACGACUCGCCCGA [IFN-gamma round 17 pool 2'F/NH2]
pKd (IFN-gamma (Homo sapiens); [5]): 6.94
pKd (IFN-gamma (Mus musculus); 2'-F all C, 2'-NH2 all U): 6.76

GGGAGGACGAUGCGGNNNNNNNNNNNNNNNNNNNNNNNNNNNNNNNNNNNNNNNNCAGACGACUCGCCCGA [IFN-gamma round 17 pool 2'F]
pKd (IFN-gamma (Homo sapiens); [6]): 7.15
pKd (IFN-gamma (Mus musculus); 2'-F all C and U): 6.39

GGGAGGACGAUGCGGNNNNNNNNNNNNNNNNNNNNNNNNNNNNNNNNNNNNNNNNCAGACGACUCGCCCGA [IFN-gamma round 17 pool 2'NH2]
pKd (IFN-gamma (Homo sapiens); 2'-NH2 all C and U, round 17 pool): 7.70
pKd (IFN-gamma (Mus musculus); 2'-NH2 all C and U): 7.07
